Experimental data from patent publication US6942981.
Ends that are not written are not given here. * marks the point of attachment. Biotin = O=C1N[C@H]2[C@H](CS[C@H]2CCCCC(=O)*)N1

Biological target: GST-DLG1 PDZ domains 1-2 fusion protein (human) (UniProt Q12959)
Assay: G assay titration of biotinylated peptide on immobilized GST-PDZ, saturation fit (apparent affinity)

Row | Kd [µM] | Binder
1 | 54 | Biotin-KDITSDSENSNFRNEIQSLV [CD95 (Apo-1/Fas) C-terminal peptide AA13L]
2 | 21 | Biotin-ISGTPTSTMVHGMTSSSSVV [CLASP-2 C-terminal peptide AA2L]
